{"source": "the DeepSol protein solubility set", "data": [{"experiment": "soluble on expression in E. coli; label from the status in PepcDB or PDB records", "values": [{"sequence": "MSLAANMYRVGDYVYFENSSSNPYLIRRIEELNKTASGNVEAKVVCFYRRRDISNTLIMLADKHAKEIEEESETTVEADLTDKQKHQLKHRELFLSRQYESLPATHIRGKCSVALLNETESVLSYLDKEDTFFYSLVYDPSLKTLLADKGEIRVGPRYQADIPEMLLEGESDEREQSKLEVKVWDPNSPLTDRQIDQFLVVARAVGTFARALDCSSSVRQPSLHMSAAAASRDITLFHAMDTLYRHSYDLSSAISVLVPLGGPVLCRDEMEEWSASEASLFEEALEKYGKDFNDIRQDFLPWKSLTSIIEYYYMWKTTDRYVQQKRLKAAEAESKLKQVYIPTYSKPNPNQISTSNGKPGAVNGAVGTTFQPQNPLLGRACESCYATQSHQWYSWGPPNMQCRLCAICWLYWKKYGGLKMPTQSEEEKLSPSPTTEDPRVRSHVSRQAMQGMPVRNTGSPKSAVKTRQAFFLHTTYFTKFARQVCKNTLRLRQAARRPFVAINYAAIRAECKMLLNSEGHHHHHH", "soluble on expression in E. coli": "not soluble"}, {"sequence": "MSLAAPVHAAPLAATASKFLGCAYGAQQAPGFAQYWNKLTPENGGKWGSVEAVRDQMDWSTLDAAYRFAQANQMPFQMHVMVWGNQQPEWIKTLRPAEQRREIEQWFAAVAQRYPDIALLEVVNEPLNDPPSKADTGGGNYLQALGGNGDSGWEWVLQSFRLARRHFPHTKLMINDYSITSSAQATQKYLQIVRLLQRENLVDAIGVQEHAFETTPEVAVSVHRDNLDALAATGLPIYITEFDLDGPTDAQQLADYKRVFPVFWEHPAVHGITLWGFRPGLWRDKEAAYLIRADGTERPALTWLRDYVAAHPGTEGHHHHHH", "soluble on expression in E. coli": "soluble"}, {"sequence": "MSLADKLSLETLESWLWESANILRGSIDSSDFKNYIFGLLFLKRYNDVFDERVTKLREEENLSYGEAQEEIEDKWGKYPISARWFDLISRTENIGEALDKAFATIEANNPELQHVLTATQYGDKRVLADATLQRLLRHFNQYKLGNDDLYKADMLGDAYEYLIKQFADDAGKKGGEFYTPKAVVQLVVELIDPRPGHSVYDPTCGSGGMLVESAHHVSGLPDGTLMGKPNVLLYGQEKNLGTWAIAKLNLYLHNMHASIERGDTLVEPKHLDGDYLKTFDRVIANPPFSAKSWWTPLELSNENEQENGKKVKAPNYKQVSDPYGRLVYGVPPRGYADLAFAQHMLASLKADGRMGVILPHGVLFRSGEEGKIREGLLFGTGAASGNQPGDVIEAIVGLPSALFYNTGIPACVLILNKQKPSALKDKVIIIDGSRDYLEGKAQNSLHAEDILRIVSTHKAAFEQQVEVENYCRLVTLDEIRSNDGNLNIVRYIDNGESDEVVNVAATLAHMATLAKEEAQIDQRLNRYLMELGLLETGEGHHHHHH", "soluble on expression in E. coli": "soluble"}, {"sequence": "MSLADNRDELKETLRTLLRDNPDLVLEVLREHSETVLEIAQQGANQRRRKVLVAQWKTDLEDPKKVNLADRPVRGEANAPVTVVAYSDFTCPYCQQAAGTVEMLLANYKGKVRYVFKQMPLETHENARTASNYYVAASLQDPAKAWKLYEAVFADRDRLVTEGEPFLKKVAQEAGLDMQRLATDIKGRKVKALIEEDMAEARKLGVQGTPYFLVNDLVVRGALPLDLFSDAVDMALEKAGAKEGHHHHHH", "soluble on expression in E. coli": "soluble"}, {"sequence": "MSLADWQNLDPEAAREAEKYENPIPSRELILAHLSERGAPATRSQLLDEFGLAGEEPEEALRRRLRAMERDGQLIYTRRGAYAPVDKLDLIRGRISGHRDGFGFLIPDDGSDDLFLSPTQMRLVFDGDRALARVSGHDRRGRREGQLVEVIERAHEIVVGRYFEESGIGVVVADNPKIQQEVLIPPGKAGKARHNQFVQVRIEQWPSIHRQAQGEIVEVLGDYMAPGMEIEVALRSYDIPHVWPAAVEKEAAKLKPEVAEKDKEKRVDLRQVPFVTIDGEDARDFDDAVYAEAKRGGGWRLFVAIADVSHYVKVGSALDEEAARRGNSVYFPERVIPMLPEVLSNGLCSLNPLVDRLAMVCEMTLSKAGKLTGYQFYEAVIHSHARLTYTKVSQLLEHPDSVEAENLRQQLPGVVPHLQQLYALYKALLAGRHVRGAIDFETQETRIVFGADRKISEIRPTQRNDAHRLIEECMLCANVATARFLQKHAIPALYRVHDGPPQEKLNNLRQFLGELGLSLGRGKAAPTPGDYQELLEKIHDRADFRLIQTVMLRSLSQAVYSPDNNGHFGLNYDAYTHFTSPIRRYPDLLVHRAIRSVIRSKAETPHVQRAGAASMPKARIYPYDELRLDQLGEQCSMTERRADEATRDVTNWLKCEYMRERVGETFPGVITAVTGFGLFVELTDIFVEGLVHVTALPGDYYHFDAVHHRLSGERTGRSFRLGDTTEVVVARVDLDERKIDFELAGNVLSAPIGRKKRNGDKSANAGKAPKGRKGASVPEVDLEPALASPDAAVVPRRKAGKVQALPPVAPELLAQAAEMLGNTDVRKSREVKQALLAEARVGGKDKGGKKGKVVPAGKSAKGKAKDGKPAAAAKPGKPTKHRKGPSKPKADNAPAATGARKRKAKSEGHHHHHH", "soluble on expression in E. coli": "not soluble"}, {"sequence": "MSLAEAVAQGAFGKVISVRGSGARVGLLPSSRLVPSAVRATVGRFVSIRTASSTIIAIITEVSSENLAETDEHIAVASVDLLGEILPGPLRPKFQRGVTNYPTIGDSVDLISSDDLRIVYEPTGSDQIDVGTLQQDPSVIAYVDIEEMLSKHFAVLGSTGVGKSTGVSLLLNEILKSRPALRIFLLDVHNEYGRSFGDKALVLNPRNLKLPFWLFNFEEIVDVLFAGRPGVPEELDILAEVIPVAKGLYVQYTSTDRLGLKRVDPKSIGYTADTPVPYRLVDLISLIDERMGKLENRSSRIIYHKLISRIETVRNDPRYAFMFDNANVGGDTMADVISHLFRLPANGKPMTIMQLAGFPAEVVDSVVSVLCRMAFDFGLWSDGVSPLLFVCEEAHRYAAADRAIGFGPTRKAVSRIAKEGRKYGVYLGLVTQRPAELDATILSQCNTLFAMRLANDRDQSLLRSAVSDAAANLLSFVPSLGTREVLAFGEGVALPTRLRFKEVPAHQLPRSEAAISTVPSAAAGNDMHFVSAVLERWRGATSHRDVPNDPGIAERPLARTLDAPMLQPSLGLDPDRFSLLKKPLREGHHHHHH", "soluble on expression in E. coli": "soluble"}, {"sequence": "MSLAEKPKKPQKLRARLPRGLADRGPAEIAATRAMVEKIREVYERYGFEPVETPAFEYTDALGKFLPDQDRPNEGVFSLQDDDEQWISLRYDLTAPLARYVAENFDQLPKPHRSYRFGWVFRNEKPGPGRFRQFMQFDADTVGAPTAAADAEMCMMAADTMEALGIPRGSYVVKVNNRKVLDGVLESIGLGGDENAGRRLTVLRAIDKSDKFAPEEIKKLLGPGRWDGGEEGKGDFTKGAMLSDDQSELILRATSPSFIAGRFNADGSGGISNIDTVELLRSTADNETLKQGCDELAVIADLLDACGYGATSANPDVRVVIDPSVVRGLEYYTGPVYEVELLLDTKDEKGRPVRFGSVGGGGRYDGLVSRFRGEPVPATGFSIGVSRLQAALTLIGQLGNKPQAGPVVVTVFGGEIAGYQKMVATLRKAGIRAELYLGNPKHSLGQQMKYADKRNSPCAIIQGSDEKQQGIVQIKDLILGAELASLEKDRDEYLKKQAEAQFSCNEDEMVAKVQELLQRRGWRGGKGIITITTDPNSSSVDKLAAALEHHHHHH", "soluble on expression in E. coli": "soluble"}, {"sequence": "MSLAELDLTGGMDEARGDIADLLGKEERKILTTGNAEIDKKIADGLPLGSLTLIEGENDTGKSVLTQQFIWGSMHNNLRVDLFSTELTTKSFLTQMESMSLDISDFFAWGYIRLFHCHLVEFKWTPDAMNDILERIITHVKFSNTDVAIIDSLTIFTEYTTNEAVLTFLTQAKNICDQGKTILITMHSYAFTDEVLTRVRSICDAHLLLMRKLMGDKYVMVLEVVKVRGARKTTGNLVSFEVHPGYGMKIIPVSVAKVEGHHHHHH", "soluble on expression in E. coli": "soluble"}, {"sequence": "MSLAESVFAERIVQNLLDTDFYKLTMMQAVLHNYPNAEVEWEFRCRNAEDLRPYLAEIRYQIERLAEVEVTADQLAFLERIPFMKPDFIRFLSLFRFNLRYVHTGIEDGQLAIRLRGPWLHVILFEVPLLAIVSEVRNRYRYREVVLEQVGEQLYRKLDWLSAQASSEELAEFQVADFGTRRRFSYRTQEEVVHILKRDFPGRFVGTSNVHLAREYDLKPIGTMAHEWLMAHQQLGPRLVDSQQAALDCWVREYRGQLGIALTDCITMDAFLDDFDLYFAKLFDGLRHDSGDPLAWAEKAIAHYRRLGIDPLSKTLVFSDGLDMPKALQLFRALRGKINVSFGIGTNLTCDIPGVEPMNIVLKMTACNGHPVAKISDAPGKTQCRDENFVAYLRHVFNVPAEGHHHHHH", "soluble on expression in E. coli": "soluble"}]}]}
